pKd: −log10 of the molar value. Several values for one entry are separate records, joined by “and”; a condition that tells them apart may be missing. Equal values may be shown once. Read-outs that look alike come from different tables or passages of the source.
Columns and labels:
[1] = biological target: Human α-glycoprotein (human) (UniProt P02763); test: calculated from ITC Ka; antibiotic 165 µM, α-glycoprotein 1.5x10^-5 M assumed
[2] = biological target: N,N′-diacetyl-Lys-D-Ala-D-Ala; test: ITC, 25 C, HSA 288 µM present
[3] = biological target: Human serum albumin (human) (UniProt P02768); test: calculated from ITC Ka; antibiotic 250 µM, HSA 6x10^-4 M assumed
[4] = biological target: N,N′-diacetyl-Lys-D-Ala-D-Ala; test: ITC, preliminary experiments, no serum proteins
[5] = biological target: Human serum albumin (human) (UniProt P02768); test: calculated from ITC Ka; antibiotic 165 µM, HSA 6x10^-4 M assumed
[6] = biological target: N,N′-diacetyl-Lys-D-Ala-D-Ala; test: ITC, 25 C, apparent Kdiss plateau at high HSA
[7] = biological target: Dog albumin (dog) (UniProt P49822); test: ITC, 25 C, single-site model
Sequence of Dog albumin (dog) (P49822 25-608 limits assumed): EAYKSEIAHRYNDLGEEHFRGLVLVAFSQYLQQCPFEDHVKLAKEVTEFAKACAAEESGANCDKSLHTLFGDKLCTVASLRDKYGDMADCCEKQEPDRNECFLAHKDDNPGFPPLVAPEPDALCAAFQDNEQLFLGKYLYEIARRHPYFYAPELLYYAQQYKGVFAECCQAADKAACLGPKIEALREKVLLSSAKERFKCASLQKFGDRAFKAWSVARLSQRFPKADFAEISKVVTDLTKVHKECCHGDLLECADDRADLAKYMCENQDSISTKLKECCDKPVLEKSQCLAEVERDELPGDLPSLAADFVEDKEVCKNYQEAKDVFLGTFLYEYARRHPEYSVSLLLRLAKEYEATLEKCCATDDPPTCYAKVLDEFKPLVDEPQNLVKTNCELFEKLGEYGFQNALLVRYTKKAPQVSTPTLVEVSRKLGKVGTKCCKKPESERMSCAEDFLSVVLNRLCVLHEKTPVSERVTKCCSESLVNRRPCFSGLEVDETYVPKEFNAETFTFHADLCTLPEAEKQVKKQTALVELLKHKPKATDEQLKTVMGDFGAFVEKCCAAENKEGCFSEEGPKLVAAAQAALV

[8] = biological target: Bovine albumin (bovine) (UniProt P02769); test: ITC, 25 C, single-site model
Sequence of Bovine albumin (bovine) (P02769 25-607 limits assumed): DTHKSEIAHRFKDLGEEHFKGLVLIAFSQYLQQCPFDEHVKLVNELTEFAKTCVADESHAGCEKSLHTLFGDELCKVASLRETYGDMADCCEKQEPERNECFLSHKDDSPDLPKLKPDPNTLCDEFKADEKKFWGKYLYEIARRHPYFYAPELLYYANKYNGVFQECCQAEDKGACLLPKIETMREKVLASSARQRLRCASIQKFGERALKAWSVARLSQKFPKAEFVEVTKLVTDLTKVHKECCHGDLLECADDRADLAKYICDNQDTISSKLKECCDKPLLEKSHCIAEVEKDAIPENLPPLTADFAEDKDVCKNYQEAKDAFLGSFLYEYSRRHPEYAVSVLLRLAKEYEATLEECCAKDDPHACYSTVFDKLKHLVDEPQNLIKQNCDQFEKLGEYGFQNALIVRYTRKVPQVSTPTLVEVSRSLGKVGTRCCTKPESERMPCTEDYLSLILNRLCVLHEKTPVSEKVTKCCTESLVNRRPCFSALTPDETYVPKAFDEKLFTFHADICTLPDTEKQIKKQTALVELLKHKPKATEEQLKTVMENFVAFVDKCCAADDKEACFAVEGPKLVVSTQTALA

[9] = biological target: Human α-glycoprotein (human) (UniProt P02763); test: ITC, 25 C, single-site model
[10] = biological target: Human serum albumin (human) (UniProt P02768); test: ITC, 25 C, single-site model
[11] = biological target: Rat albumin (rat) (UniProt P02770); test: ITC, 25 C, single-site model
Sequence of Rat albumin (rat) (P02770 25-608 limits assumed): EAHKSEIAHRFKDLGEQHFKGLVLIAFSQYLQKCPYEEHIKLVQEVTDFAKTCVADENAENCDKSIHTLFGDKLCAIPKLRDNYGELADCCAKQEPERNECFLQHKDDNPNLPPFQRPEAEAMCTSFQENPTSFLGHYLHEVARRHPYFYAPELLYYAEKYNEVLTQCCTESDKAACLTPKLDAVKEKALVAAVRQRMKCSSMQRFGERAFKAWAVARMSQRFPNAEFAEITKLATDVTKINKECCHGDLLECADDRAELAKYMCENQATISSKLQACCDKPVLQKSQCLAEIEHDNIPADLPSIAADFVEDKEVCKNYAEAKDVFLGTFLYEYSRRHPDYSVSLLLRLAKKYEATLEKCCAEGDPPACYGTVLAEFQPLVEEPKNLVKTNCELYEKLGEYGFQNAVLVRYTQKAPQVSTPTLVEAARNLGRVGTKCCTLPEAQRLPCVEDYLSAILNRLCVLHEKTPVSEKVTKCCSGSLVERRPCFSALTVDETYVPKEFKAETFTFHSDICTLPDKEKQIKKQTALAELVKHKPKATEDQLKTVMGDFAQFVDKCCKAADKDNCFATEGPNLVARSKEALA

[12] = biological target: N,N′-diacetyl-Lys-D-Ala-D-Ala
[13] = biological target: Human α-glycoprotein (human) (UniProt P02763); test: calculated from ITC Ka; antibiotic 100 µM, α-glycoprotein 1.5x10^-5 M assumed
[14] = biological target: N,N′-diacetyl-Lys-D-Ala-D-Ala; test: ITC, 25 C, HSA 430 µM present
[15] = biological target: N,N′-diacetyl-Lys-D-Ala-D-Ala; test: ITC, 37 C, no HSA, average
[16] = biological target: Human α-glycoprotein (human) (UniProt P02763); test: calculated from ITC Ka; antibiotic 500 µM, α-glycoprotein 1.5x10^-5 M assumed
[17] = biological target: Human serum albumin (human) (UniProt P02768); test: calculated from ITC Ka; antibiotic 1 µM, HSA 6x10^-4 M assumed
[18] = biological target: N,N′-diacetyl-Lys-D-Ala-D-Ala; test: ITC, 25 C, no HSA, average
[19] = biological target: Human α-glycoprotein (human) (UniProt P02763); test: calculated from ITC Ka; antibiotic 250 µM, α-glycoprotein 1.5x10^-5 M assumed
[20] = biological target: N,N′-diacetyl-Lys-D-Ala-D-Ala; test: ITC, 10 C, HSA 0 µM
[21] = biological target: Human α-glycoprotein (human) (UniProt P02763); test: calculated from ITC Ka; antibiotic 1 µM, α-glycoprotein 1.5x10^-5 M assumed
[22] = biological target: Dog albumin (dog) (UniProt P49822); test: ITC, 37 C, single-site model
[23] = biological target: Human α-glycoprotein (human) (UniProt P02763); test: ITC, 37 C, single-site model
[24] = biological target: Human serum albumin (human) (UniProt P02768); test: ITC, 37 C, single-site model
[25] = biological target: Rat albumin (rat) (UniProt P02770); test: ITC, 37 C, single-site model
[26] = biological target: N,N′-diacetyl-Lys-D-Ala-D-Ala; remark: listed apart in the source
[27] = biological target: N,N′-diacetyl-Lys-D-Ala-D-Ala; test: ITC, 25 C, HSA 104 µM present
[28] = biological target: Human serum albumin (human) (UniProt P02768); test: calculated from ITC Ka; antibiotic 500 µM, HSA 6x10^-4 M assumed
[29] = biological target: N,N′-diacetyl-Lys-D-Ala-D-Ala; test: ITC, 37 C, HSA 516 µM present
[30] = biological target: N,N′-diacetyl-Lys-D-Ala-D-Ala; test: ITC, 10 C, no HSA, average
[31] = biological target: N,N′-diacetyl-Lys-D-Ala-D-Ala; remark: listed apart in the source
[32] = biological target: Human α-glycoprotein (human) (UniProt P02763); test: calculated from ITC Ka; antibiotic 10 µM, α-glycoprotein 1.5x10^-5 M assumed
[33] = biological target: N,N′-diacetyl-Lys-D-Ala-D-Ala; test: ITC, 37 C, HSA 0 µM
[34] = biological target: N,N′-diacetyl-Lys-D-Ala-D-Ala; remark: listed apart in the source
[35] = biological target: Human serum albumin (human) (UniProt P02768); test: calculated from ITC Ka; antibiotic 10 µM, HSA 6x10^-4 M assumed
[36] = biological target: Human serum albumin (human) (UniProt P02768); test: calculated from ITC Ka; antibiotic 100 µM, HSA 6x10^-4 M assumed
[37] = biological target: N,N′-diacetyl-Lys-D-Ala-D-Ala; test: ITC, 25 C, HSA 34.2 µM present
[38] = biological target: human albumin (Homo sapiens, UniProt P02768); test: Protein binding by isothermal titration microcalorimetry
Description: (§1) Integrated heat effects, after correction for heats of dilution, were analyzed by non-linear regression using a simple single-site binding model with the standard Microcal ORIGIN software package. Raw data (μcal/sec) for each injection were integrated to give the total heat effect per addition, then divided by amount of injectant to give kcal/mole of injectant. The same integration was applied for control dilution effects, and this was subtracted from the actual titration data. This provided a differential of the binding curve in which the extent of binding is proportional to the total heat liberated (or absorbed). This was then analyzed by non-linear regression methods in terms of various standard binding models.

[39] = test system: human α-glycoprotein; test: as above; settings: α-glycoprotein […]10^−5M
Description: as §1

[40] = biological target: N,N′-diacetyl-Lys-D-Ala-D-Ala; test: ITC, 25 C, HSA 0 µM
[41] = biological target: N,N′-diacetyl-Lys-D-Ala-D-Ala; test: ITC, 25 C, HSA 513 µM present
[42] = biological target: N,N′-diacetyl-Lys-D-Ala-D-Ala; test: ITC, 25 C, asymptote of the non-competitive binding model

Sequence of Human α-glycoprotein (human) (P02763 19-201): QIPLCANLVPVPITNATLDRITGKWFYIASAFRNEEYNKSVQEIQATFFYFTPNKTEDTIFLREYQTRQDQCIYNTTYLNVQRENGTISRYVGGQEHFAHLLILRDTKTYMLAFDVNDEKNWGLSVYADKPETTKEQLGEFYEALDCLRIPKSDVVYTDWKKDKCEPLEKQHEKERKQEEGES

In the case of Dalbavancin (peptide), the calculated percent bound [1] was 16.9%, the Ka [2] was 31000 M⁻¹ and the pKd [2] was 4.49. For the same substance, the ΔH [2] was -21.1 kcal/mol, the ΔS [2] was -50 eu and the calculated percent bound [3] was 98.5%. For the same substance, the pKd [4] was 5.00 to 6.00, the calculated percent bound [5] was 98.6% and the pKd [6] was 4.46. The Ka [7] was 62000 M⁻¹, the Ka [8] was 138000 M⁻¹ and the Ka [9] was 184000 M⁻¹. The Ka [10] was 135000 M⁻¹, the Ka [11] was 310000 M⁻¹ and the Ka [12] was 118000 M⁻¹. The pKd [12] was 5.07, the ΔH [12] was -27.8 kcal/mol and -26.4 kcal/mol and the ΔS [12] was -70.1 eu and -65.5 eu. The calculated percent bound [13] was 26.2%, the Ka [14] was 28400 M⁻¹ and the pKd [14] was 4.45. The ΔH [14] was -19.5 kcal/mol, the ΔS [14] was -44.9 eu and the pKd [15] was 5.08. For the same substance, the calculated percent bound [16] was 5.9%, the calculated percent bound [17] was 98.8% and the pKd [18] was 5.51. For the same substance, the calculated percent bound [19] was 11.4%, the ΔH [20] was -10.3 kcal/mol (2×) and -8.95 kcal/mol and the ΔS [20] was -9.6 eu and -4.3 eu and -9.9 eu. It also gave a calculated percent bound [21] of 73%, a Ka [22] of 50000 M⁻¹ and a Ka [23] of 480000 M⁻¹. It also gave a Ka [24] of 133000 M⁻¹, a Ka [25] of 280000 M⁻¹ and a Ka [26] of 21800 M⁻¹. It also gave a pKd [26] of 4.34, a ΔH [26] of -15 kcal/mol and a ΔS [26] of -30.4 eu. For the same substance, the Ka [27] was 34900 M⁻¹, the pKd [27] was 4.54 and the ΔH [27] was -18.6 kcal/mol. The ΔS [27] was -41.7 eu, the calculated percent bound [28] was 98% and the Ka [29] was 9570 M⁻¹. It also gave a pKd [29] of 3.98, a ΔH [29] of -26.6 kcal/mol and a ΔS [29] of -67.6 eu. The pKd [30] was 5.85, the Ka [31] was 27600 M⁻¹ and the pKd [31] was 4.44. For the same substance, the ΔH [31] was -16.9 kcal/mol, the ΔS [31] was -36.5 eu and the calculated percent bound [32] was 68.2%. The Ka [33] was 130000 M⁻¹ and 110000 M⁻¹, the pKd [33] was 5.11 and 5.04 and the ΔH [33] was -12.5 kcal/mol and -17.4 kcal/mol. For the same substance, the ΔS [33] was -16.8 eu and -33.2 eu, the Ka [34] was 12500 M⁻¹ and the pKd [34] was 4.10. It also gave a ΔH [34] of -98.6 kcal/mol, a ΔS [34] of -299 eu and a calculated percent bound [35] of 98.8%. It also gave a calculated percent bound [36] of 98.7%, a Ka [37] of 35000 M⁻¹ and a pKd [37] of 4.54. It also gave a ΔH [37] of -20 kcal/mol and a ΔS [37] of -46.2 eu.

With Teicoplanin (peptide) the Ka [9] was 7000 M⁻¹, the Ka [10] was 96000 M⁻¹ and the calculated percent bound [13] was 6%. The calculated percent bound [17] was 98.3%, the calculated percent bound [21] was 9.6% and the calculated percent bound [32] was 9.1%. It also gave a calculated percent bound [35] of 98.3% and a calculated percent bound [36] of 98%.

With Teicoplanin [reference compound] the “binding stoichiometry modeling (drug:protein)” value [38] was 1:1 binding, the Calculated percent binding ([38]; antibiotic 100 μM, human serum albumin 6×10^−4 M) was 98.0% and the Calculated percent binding ([39]; antibiotic 1 μM) was 9.6%. For the same substance, the Calculated percent binding ([39]; antibiotic 10 μM) was 9.1% and the Calculated percent binding ([39]; antibiotic 100 μM) was 6.0%.

“Vancomycin hydrochloride (Sigma V-2002, fw 1485.7) (peptide)” was tested, and the Ka [40] was 340000 M⁻¹ and 360000 M⁻¹, the pKd [40] was 5.53 and 5.56 and the ΔH [40] was -10.7 kcal/mol and -12.9 kcal/mol. For the same substance, the ΔS [40] was -10.6 eu and -17.8 eu, the Ka [20] was 690000 M⁻¹ and the pKd [20] was 5.84. The ΔH [20] was -9.49 kcal/mol, the ΔS [20] was -6.8 eu and the Ka [41] was 290000 M⁻¹. It also gave a pKd [41] of 5.46, a ΔH [41] of -10.1 kcal/mol and a ΔS [41] of -8.8 eu.

Work on “dalbavancin-HSA complex (from UniProt P02768 25-609)” yielded a pKd [42] of 4.46.

— patent US20050004011A1, “Compositions and methods for treating bacterial infections with protein-dalbavancin complexes” (priority 2002, published 2005)
